T1: HEK293/hPRLR (Homo sapiens, UniProt P16471)
T1 construct: HA; expressed in transfected cells; host or cells: HEK293
T1 sequence (P16471 25-622): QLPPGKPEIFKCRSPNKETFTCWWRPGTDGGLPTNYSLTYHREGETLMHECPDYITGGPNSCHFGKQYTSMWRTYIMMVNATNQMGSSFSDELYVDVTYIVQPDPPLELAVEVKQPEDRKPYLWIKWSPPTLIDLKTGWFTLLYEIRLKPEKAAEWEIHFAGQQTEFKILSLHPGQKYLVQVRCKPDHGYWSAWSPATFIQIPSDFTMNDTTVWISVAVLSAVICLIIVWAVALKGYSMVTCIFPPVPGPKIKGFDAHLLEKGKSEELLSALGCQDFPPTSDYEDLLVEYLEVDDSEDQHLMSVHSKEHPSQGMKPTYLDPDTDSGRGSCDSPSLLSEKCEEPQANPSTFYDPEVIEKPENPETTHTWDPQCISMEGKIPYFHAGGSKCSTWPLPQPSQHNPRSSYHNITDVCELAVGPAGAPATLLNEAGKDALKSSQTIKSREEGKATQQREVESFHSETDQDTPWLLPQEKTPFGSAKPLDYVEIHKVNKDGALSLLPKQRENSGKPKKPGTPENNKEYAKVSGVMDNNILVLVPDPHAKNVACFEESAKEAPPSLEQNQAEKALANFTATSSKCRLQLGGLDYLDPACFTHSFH

T2: HEK293/mPRLR (Mus musculus, UniProt Q08501)
T2 construct: HA; expressed in transfected cells; host or cells: HEK293
T2 sequence (Q08501 20-608): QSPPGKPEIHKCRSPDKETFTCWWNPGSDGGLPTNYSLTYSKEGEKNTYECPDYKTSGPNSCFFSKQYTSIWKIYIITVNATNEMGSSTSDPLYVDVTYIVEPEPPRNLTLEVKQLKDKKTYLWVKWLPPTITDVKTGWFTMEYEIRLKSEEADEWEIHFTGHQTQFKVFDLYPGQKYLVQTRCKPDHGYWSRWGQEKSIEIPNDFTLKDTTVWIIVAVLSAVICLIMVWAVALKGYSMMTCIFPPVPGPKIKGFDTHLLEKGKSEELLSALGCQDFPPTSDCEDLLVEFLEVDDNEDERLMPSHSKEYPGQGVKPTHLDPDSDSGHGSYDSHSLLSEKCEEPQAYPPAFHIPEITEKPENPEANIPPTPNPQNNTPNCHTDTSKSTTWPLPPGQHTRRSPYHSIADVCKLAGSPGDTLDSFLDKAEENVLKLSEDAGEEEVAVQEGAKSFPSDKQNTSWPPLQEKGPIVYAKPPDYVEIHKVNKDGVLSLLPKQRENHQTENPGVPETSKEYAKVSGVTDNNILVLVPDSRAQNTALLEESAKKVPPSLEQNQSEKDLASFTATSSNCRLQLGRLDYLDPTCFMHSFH

T3: T47D (native PRLR expressing cell line) (Homo sapiens, UniProt P16471)
T3 construct: a native PRLR expressing cell line (T47D); endogenous in cells; host or cells: T47D
T3 sequence (P16471 25-622): T1 sequence (P16471 25-622)

B1: H1H6790P: anti-PRLR antibody, human IgG1 Fc; HCVR/LCVR SEQ ID NOs 114/122 (antibody, V domains shown)
VH: EVQLVESGGGLVQPGGSLRLSCAASGFTFSSYAMTWVRQAPGKGLEWVSAITGSVGNTYYADSVKGRFTISRDNSKNTLYLQMNSLGAEDTAEYYCAKGAGMTTNWYLDLWGRGTLVTVSS
VL: DIVMTQSPDSLAVSLGARATINCKSSQSVLYSSNNQNYLTWYQQKPGQPPKLLIKWASTRESGVPDRFSGSGSGTDFTLTISSLQAEDVAVYYCQQYASSPYTFGQGTKLEIK
modifications: human IgG1 Fc
B2: H1H6792P: anti-PRLR antibody, human IgG1 Fc; HCVR/LCVR SEQ ID NOs 130/138 (antibody, V domains shown)
VH: EVQLVESGGGLVQPGRSLRLSCAASGFTLDDHAVHWVRQAPGKGLEWVSGISWNSVYIDYADSVKGRFTIFRDNAKNSLYLQMNSLRAEDTAFYYCARDIEGARDYWGQGTLVTVSS
VL: DIQMTQSPSSLSASVGDRVTITCRASQGIRNDLGWYQQKPGKAPKRLIYAASSLQSGVPSRFSGSGYGTEFTLTISSLQPEDFAPYYCLQHNSYPLTFGGGTKVEIK
modifications: human IgG1 Fc
B3: H1H6785P: anti-PRLR antibody, human IgG1 Fc; HCVR/LCVR SEQ ID NOs 98/106 (antibody, V domains shown)
VH: EVQLVESGGGLVQPGGSLRLSCAASGFTFSSYEMNWVRQAPGKGLEWISYISSRGGTIYYADSIKGRFTIYRDNARNSLYLQMNSLRAEDTAIYYCARLSGVDIFDIWGQGTMVTVSS
VL: DIQMTQSPSSLSASVGDRVTITCRASQGISNYLAWYQQKPGKVPKLLIYFASTLQSGVPSRFSGGGSGTDFTLTISSLQPEDVATYYCQRYNSAPLTFGGGTKVEIK
modifications: human IgG1 Fc
B4: H1H6793P: anti-PRLR antibody, human IgG1 Fc; HCVR/LCVR SEQ ID NOs 146/154 (antibody, V domains shown)
VH: EVQLVESGGGLVQPGGSLRLSCAASGFSFSIYAMSWFRQAPGKGLEWVSAINGRGDGTHYADSVKGRFTISRDNSKTTLYLQMSSLRAEDTAVYYCAKPVMSTNGFDIWGQGTMVTVSS
VL: DIQMTQSPSTLSASVGDRVTITCRASQSISSWLAWYQLKPGKAPKLLIYKASNLESGVPSRFSGSGSGTEFTLTISSLQPDDFATYYCQQYNIYWTFGQGTKVEIK
modifications: human IgG1 Fc
B5: H1H6797P: anti-PRLR antibody, human IgG1 Fc; HCVR/LCVR SEQ ID NOs 178/186 (antibody, V domains shown)
VH: EVQLVESGGGLVQPGGSLRLSCIVSGFTFSGSWMSWVRQLPGKGLEWVANIKEDGSDSYYVDSVEGRFTISRDNAKSSLYLQMNSLRVDDTAVYFCARARTVPLHYWGQGTLVTVSS
VL: DIQMTQSPSTLSASVGDRVTITCRASQSINIWLAWYQQKPGKAPKLLIYRASYLESGVPSSFAGGGSGTEFTLTISSLQPDDFGTYYCQHYNSYPFTFGQGTKLEIK
modifications: human IgG1 Fc
B6: H1H6795P: anti-PRLR antibody, human IgG1 Fc; HCVR/LCVR SEQ ID NOs 162/170 (antibody, V domains shown)
VH: QVQLVQSGAEVKKPGASVKVSCKASGYTFGTSGITWVRQAPGQGLEWMGWSSAYNGKTDYAQKFQDRVTMTTDTSTTTGYMEMRSLTSDDTAVYYCTTVVRRPFDFWGQGTLVTVSS
VL: DIQMTQSPSSLSASVGDRVTITCRASQDINNFLAWFQQKPGKAPKSLIYAASSLQSGVPSKFSGGGSGTDFALTISSLQPEDFATYYCQQYSSYPITFGQGTRLEIK
modifications: human IgG1 Fc

The molecules below were run on HEK293/hPRLR/STAT5-Luc cells (human PRLR) (assay: STAT5-Luc luciferase reporter assay, blocking of PRL-mediated receptor activation). Settings: 5 nM constant PRL, 6 hr at 37° C.
Format: cell-based
From the text: The ability of anti-PRLR antibodies to block prolactin (PRL)-mediated receptor activation was examined in a luciferase-based reporter assay. The endocrine hormone PRL binds to the extracellular domain of its cognate receptor PRLR, triggering rapid homodimerization and activating several downstream signaling cascades.
In this example, an engineered cell line was used to determine the ability of anti-PRLR antibodies to block ligand activation of the PRLR receptor. Briefly, HEK293/hPRLR/STAT5-Luc cell lines with stable incorporation of a human PRLR expression cassette and the STAT5-dependent luciferase reporter were generated via sequential rounds of Lipofectamine® 2000-mediated transfection (LifeTechnologies, Carlsbad, Calif.). Cells were selected for at least two weeks in the presence of 500 μg/mL G418 (hPRLR) and 100 μg/mL hygromycin B (STAT5-Luc). The STAT5-Luc assay utilized 2×10^5 HEK293/hPRLR/STAT5-Luc cells seeded in complete growth medium on PDL-coated 96 well plates grown overnight at 37° C., 5% CO2. To generate antibody inhibition curves, cells were incubated (6 hr at 37° C.) with serially diluted anti-human PRLR antibodies (100 nM to 24 pM) in the presence of 5 nM constant PRL before recording signal. PRL dose response curves were generated by the addition of serially diluted PRL (100 nM to 24 pM) to cells and recording signal after a 6 hr (37° C.) incubation in the absence of antibodies. The ability of the antibodies to activate PRLR in the absence of ligand was also assessed.
Luciferase activity was measured with ONE-GLO™ reagent (Promega, Madison, Wis.). Relative light units (RLUs) were measured on a Victor luminometer (Perkin Elmer, Shelton, Conn.). EC50/IC50 values were determined from a four-parameter logistic equation over an 8-point response curve using GraphPad Prism. Percent blocking and percent activation are reported for the highest antibody dose.

Molecule | IC50 [nM]
B1 | 0.206
B2 | 0.57
B3 | 0.345

Same assay, conditions: 100 nM antibody, 5 nM PRL

Molecule | Percent Blocking at 100 nM Antibody [%]
B1 | 100
B4 | 65
B2 | 100
B3 | 100
B5 | 0
B6 | 0

The molecules below were run against T1, HEK293/hPRLR (assay: FACS cell surface binding). Settings: not given.
Experimental: (§1) The ability of anti-PRLR antibodies to selectively bind PRLR expressing cell lines was next determined. Human, monkey macaca fascicularis, and mouse PRLR constructs with an HA tag were stably introduced into HEK293 cells via Lipofectamine 2000-mediated transfection methodology. Transfectants (HEK293/hPRLR, HEK293/mfPRLR and HEK293/mPRLR) were selected for at least 2 weeks in complete growth media plus G418.
(§2) Cell surface expression of PRLR on 293/hPRLR cells was assessed via FACS analysis. Briefly, 1×10^5 cells were incubated with 10 μg/ml of Control antibody I, or an isotype control for 30 min on ice in antibody dilution buffer. Following two washes with antibody dilution buffer, cells were incubated with 10 μg/ml of PE conjugated anti-human secondary antibodies for 30 min on ice. Following two additional washes, samples were run on a Hypercyt® cytometer and analyzed in FORECYT™ (IntelliCyt, Albuquerque, N. Mex.). The mean fluorescence intensities (MFI) were expressed as fold change above isotype control levels (background). FACS binding confirmed that Control I selectively bound to 293/hPRLR expressing cells with MFIs that were 30 fold above background (isotype ctrl) levels and less than 2 fold binding on parental cells.
(§3) Next, the anti-PRLR antibodies of the present invention were tested via FACS for selective binding to the engineered overexpressing PRLR HEK293 cell lines, as well as to non-expressing HEK293 cells and a native PRLR expressing cell line (T47D).

FACS Cell Binding (Fold Above Background) | Molecule
37 | B1
2 | B4
37 | B2
37 | B3
1 | B5
1 | B6

These molecules were tested against T2, HEK293/mPRLR (assay: FACS cell surface binding). Settings: not given.
Experimental: as §1, §2, §3

FACS Cell Binding (Fold Above Background) | Molecule
1 | B1
2 | B4
3 | B2
2 | B3
2 | B5
1 | B6

What follows are molecules tested against T3, T47D (native PRLR expressing cell line) (assay: FACS cell surface binding). Settings: not given.
Experimental: as §1, §2, §3

FACS Cell Binding (Fold Above Background) | Molecule
34 | B1
43 | B4
37 | B2
40 | B3
38 | B5
34 | B6

The molecules below were run on HEK293 (non-expressing parental cells) (assay: FACS cell surface binding). Settings: not given.
Experimental: as §1, §2, §3

Molecule | FACS Cell Binding (Fold Above Background)
B1 | 1
B4 | 2
B2 | 1
B3 | 1
B5 | 1
B6 | 1

These molecules were tested on HEK293/mfPRLR (assay: FACS cell surface binding). Settings: not given.
HEK293/mfPRLR, sequence (as listed by the source): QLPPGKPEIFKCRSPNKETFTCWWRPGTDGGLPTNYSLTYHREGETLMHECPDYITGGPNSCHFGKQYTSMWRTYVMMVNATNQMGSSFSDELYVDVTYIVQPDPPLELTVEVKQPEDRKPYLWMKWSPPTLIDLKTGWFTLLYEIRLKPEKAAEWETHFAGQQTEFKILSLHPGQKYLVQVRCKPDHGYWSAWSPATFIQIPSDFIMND
Design: species or system macaca fascicularis
Experimental: as §1, §2, §3

Molecule | FACS Cell Binding (Fold Above Background)
B1 | 24
B4 | 32
B2 | 28
B3 | 26
B5 | 25
B6 | 22
